T1: Nma-VGAK(Ac)RHSK(Dnp)-NH2
T1 sequence: VGAKRHSK

T2: Boc-Val-Leu-(Ac)Lys-MCA
T2 sequence: VLK

T3: Boc-Val-Leu-Lys-MCA
T3 sequence: VLK

T4: Nma-VGAK(Ac)RHSK(Dnp)-NH2
T4 chain: VGAKRHSK

B1: recombinant SIRT1 (GST fused to the amino terminal end) (protein)
chain: MADEAALALQPGGSPSAAGADREAASSPAGEPLRKRPRRDGPGLERSPGEPGGAAPEREVPAAARGCPGAAAAALWREAEAEAAAAGGEQEAQATAAAGEGDNGPGLQGPSREPPLADNLYDEDDDDEGEEEEEAAAAAIGYRDNLLFGDEIITNGFHSCESDEEDRASHASSSDWTPRPRIGPYTFVQQHLMIGTDPRTILKDLLPETIPPPELDDMTLWQIVINILSEPPKRKKRKDINTIEDAVKLLQECKKIIVLTGAGVSVSCGIPDFRSRDGIYARLAVDFPDLPDPQAMFDIEYFRKDPRPFFKFAKEIYPGQFQPSLCHKFIALSDKEGKLLRNYTQNIDTLEQVAGIQRIIQCHGSFATASCLICKYKVDCEAVRGDIFNQVVPRCPRCPADEPLAIMKPEIVFFGENLPEQFHRAMKYDKDEVDLLIVIGSSLKVRPVALIPSSIPHEVPQILINREPLPHLHFDVELLGDCDVIINELCHRLGGEYAKLCCNPVKLSEITEKPPRTQKELAYLSELPPTPLHVSEDSSSPERTSPPDSSVIVTLLDQAAKSNDDLDVSESKGCMEEKPQEVQTSRNVESIAEQMENPDLKNVGSSTGEKNERTSVAGTVRKCWPNRVAKEQISRRLDGNQYLFLPPNRYIFHGAEVYSDSEDDVLSSSSCGSNSDSGTCQSPSLEEPMEDESEIEEFYNGLEDEPDVPERAGGAGFGTDGDDQEAINEAISVKQEVTDMNYPSNKS

What was measured:
[1] = system: T1, Nma-VGAK(Ac)RHSK(Dnp)-NH2
Boc-Val-Leu-(Ac)Lys-MCA = system: T2, Boc-Val-Leu-(Ac)Lys-MCA
Boc-Val-Leu-Lys-MCA = system: T3, Boc-Val-Leu-Lys-MCA
[2] = target: T4, Nma-VGAK(Ac)RHSK(Dnp)-NH2

Molecule	peptide cleavage (fluorescence intensity) [1]	peptide cleavage activity (fluorescence intensity of released AMC) (Boc-Val-Leu-(Ac)Lys-MCA)	peptide cleavage activity (fluorescence intensity of released AMC) (Boc-Val-Leu-Lys-MCA)	NAD-dependent deacetylase activity (fluorescence intensity, lysylendopeptidase-coupled assay) [2]	deacetylase activity (fluorescence intensity, lysylendopeptidase-coupled assay) [2]
lysylendopeptidase	In the absence of recombinant SIRT1, the fluorescence intensity did not increase, namely, the fluorescent substrate was not cleaved off by LEP at all.	did not cleave Boc-Val-Leu-(Ac)Lys-MCA	digested Boc-Val-Leu-Lys-MCA		
plasmin		did not cleave Boc-Val-Leu-(Ac)Lys-MCA	digested Boc-Val-Leu-Lys-MCA		
B1				the fluorescence intensity increased in an NAD concentration-dependent fashion. In the absence of NAD, regardless of the presence of the recombinant SIRT1, the fluorescence intensity did not increase	the fluorescence intensity increased was proportional to the recombinant SIRT1 concentration

Reference: patent US20030082668
